# Measurements: paper PMC3310976 (Chromosoma, 2011)
# B1: GST-tagged Chromator chromodomain (219-277) (domain or fragment, Drosophila, UniProt Q86BS3 219-277, looked up)
# chain: TEEPVEKIVAKRFNPRRKTHEYLVKWVDRSHHENTWEVMANLERVPYFLQMFEKQLARQ
# What was measured:
# [1] = target: T1, His-tagged (6x) Drosophila histone H1 fusion protein (Drosophila, UniProt P02255 1-256); experiment: pull-down
# T1 sequence (looked up): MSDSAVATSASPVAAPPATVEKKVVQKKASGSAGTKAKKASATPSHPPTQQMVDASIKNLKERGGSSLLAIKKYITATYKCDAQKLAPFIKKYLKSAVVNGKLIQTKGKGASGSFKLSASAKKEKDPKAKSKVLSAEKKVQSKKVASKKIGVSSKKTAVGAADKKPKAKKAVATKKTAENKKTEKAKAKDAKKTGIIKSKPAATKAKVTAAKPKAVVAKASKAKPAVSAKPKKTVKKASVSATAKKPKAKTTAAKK
# [2] = target: T2, full-length Drosophila histone H1 fusion protein with a maltose binding protein-tag (Drosophila, UniProt P02255 1-256); experiment: far-Western, overlay or dot blot
# T2 sequence (looked up): T1 sequence (looked up)
binder,measurement,setting,value
B1,binding result,[1],binds
same,binding result,[2],binds
